In US12723078 (University of Texas, dated 2026):

Assays:
[1] = molecular target: T1, recombinant human LILRB1 protein (human, UniProt Q8NHL6 24-461); experiment: Octet RED96 (BLI), antibody on protein G biosensors, recombinant LILRB1 in solution, FIG. 2E (not Table 14)
T1 construct: ELISA and Octet methods say only 'recombinant LILRB1'; also called recombinant LILRB1; LILRB1 recombinant proteins

D3-Fc = molecular target: T2, D3-Fc (human, UniProt Q8NHL6); experiment: ELISA on LILRB1 domain-Fc fusion proteins
T2 construct: D3 domain; also called LILRB1 D3-Fc
T2 sequence (Q8NHL6 222-312 limits assumed): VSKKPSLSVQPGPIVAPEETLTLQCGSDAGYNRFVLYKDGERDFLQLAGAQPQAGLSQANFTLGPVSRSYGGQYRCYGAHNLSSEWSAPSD

D2-Fc = molecular target: T3, D2-Fc (human, UniProt Q8NHL6); experiment: ELISA on LILRB1 domain-Fc fusion proteins
T3 construct: D2 domain; also called LILRB1 D2-Fc

D4SR-Fc = molecular target: T4, D4SR-Fc (human, UniProt Q8NHL6); experiment: ELISA on LILRB1 domain-Fc fusion proteins
T4 construct: D4 and stalk region

D1-Fc = molecular target: T5, D1-Fc (human, UniProt Q8NHL6); experiment: ELISA on LILRB1 domain-Fc fusion proteins
T5 construct: D1 domain; also called LILRB1 D1-Fc

D23-Fc = molecular target: T6, D23-Fc (human, UniProt Q8NHL6); experiment: ELISA on LILRB1 domain-Fc fusion proteins
T6 construct: D2-D3
T6 sequence (Q8NHL6 116-312 limits assumed): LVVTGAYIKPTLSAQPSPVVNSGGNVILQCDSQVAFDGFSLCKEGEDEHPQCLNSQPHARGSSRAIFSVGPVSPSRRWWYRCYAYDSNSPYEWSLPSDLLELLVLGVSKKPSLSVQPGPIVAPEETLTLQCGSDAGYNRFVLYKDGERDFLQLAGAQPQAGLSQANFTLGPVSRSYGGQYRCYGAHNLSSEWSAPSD

SR-Fc = molecular target: T7, SR-Fc (human, UniProt Q8NHL6); experiment: ELISA on LILRB1 domain-Fc fusion proteins
T7 construct: stalk region

D234SR-Fc = molecular target: T8, D234SR-Fc (human, UniProt Q8NHL6); experiment: ELISA on LILRB1 domain-Fc fusion proteins
T8 construct: D2-D4 and stalk region
T8 sequence (Q8NHL6 116-461 limits assumed): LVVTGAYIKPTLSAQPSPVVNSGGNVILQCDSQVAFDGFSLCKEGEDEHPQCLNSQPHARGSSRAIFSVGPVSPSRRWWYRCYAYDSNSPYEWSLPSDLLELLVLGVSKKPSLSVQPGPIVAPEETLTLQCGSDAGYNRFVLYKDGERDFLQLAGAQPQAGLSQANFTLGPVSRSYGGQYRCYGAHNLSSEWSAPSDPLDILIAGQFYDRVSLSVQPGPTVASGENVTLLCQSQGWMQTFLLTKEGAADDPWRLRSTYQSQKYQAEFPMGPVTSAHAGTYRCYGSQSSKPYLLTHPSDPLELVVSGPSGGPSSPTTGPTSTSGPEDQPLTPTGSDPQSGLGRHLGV

D34SR-Fc = molecular target: T9, D34SR-Fc (human, UniProt Q8NHL6); experiment: ELISA on LILRB1 domain-Fc fusion proteins
T9 construct: D3-D4 and stalk region

[2] = molecular target: T1, recombinant human LILRB1 protein; experiment: Octet RED96, LILRB1 at 100, 33.3, 11.1 and 3.7 nM
LILRA4 = molecular target: T10, LILRA4 (human, UniProt P59901); experiment: ELISA
T10 construct: not the cell-surface form of MOLECULES; also called LILRA4 protein of the ELISA and Octet specificity tests
T10 sequence (P59901 24-446 limits assumed): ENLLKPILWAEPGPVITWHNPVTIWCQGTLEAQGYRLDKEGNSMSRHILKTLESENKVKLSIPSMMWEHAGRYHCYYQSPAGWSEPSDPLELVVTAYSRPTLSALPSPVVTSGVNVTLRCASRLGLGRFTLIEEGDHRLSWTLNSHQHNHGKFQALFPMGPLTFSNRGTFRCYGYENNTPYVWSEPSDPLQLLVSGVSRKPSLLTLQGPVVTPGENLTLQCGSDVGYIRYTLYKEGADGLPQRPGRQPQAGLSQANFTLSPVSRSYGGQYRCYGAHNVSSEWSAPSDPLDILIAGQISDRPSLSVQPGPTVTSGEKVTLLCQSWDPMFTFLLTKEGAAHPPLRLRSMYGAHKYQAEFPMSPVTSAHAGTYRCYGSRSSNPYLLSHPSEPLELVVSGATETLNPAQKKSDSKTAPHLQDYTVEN

LILRB5 = molecular target: T11, LILRB5; experiment: ELISA
T11 construct: not the cell-surface form of MOLECULES; also called LILRB5 protein of the ELISA and Octet specificity tests; not shown: Fc or tag of the recombinant LILRB5 construct, if any

LILRB4 = molecular target: T12, LILRB4 (human, UniProt Q8NHJ6); experiment: ELISA
T12 construct: not the cell-surface form of MOLECULES; also called LILRB4 protein of the ELISA and Octet specificity tests

LILRA2 = molecular target: T13, LILRA2 (human, UniProt Q8N149); experiment: ELISA
T13 construct: not the cell-surface form of MOLECULES; also called LILRA2 protein of the ELISA and Octet specificity tests
T13 sequence (Q8N149 24-449 limits assumed): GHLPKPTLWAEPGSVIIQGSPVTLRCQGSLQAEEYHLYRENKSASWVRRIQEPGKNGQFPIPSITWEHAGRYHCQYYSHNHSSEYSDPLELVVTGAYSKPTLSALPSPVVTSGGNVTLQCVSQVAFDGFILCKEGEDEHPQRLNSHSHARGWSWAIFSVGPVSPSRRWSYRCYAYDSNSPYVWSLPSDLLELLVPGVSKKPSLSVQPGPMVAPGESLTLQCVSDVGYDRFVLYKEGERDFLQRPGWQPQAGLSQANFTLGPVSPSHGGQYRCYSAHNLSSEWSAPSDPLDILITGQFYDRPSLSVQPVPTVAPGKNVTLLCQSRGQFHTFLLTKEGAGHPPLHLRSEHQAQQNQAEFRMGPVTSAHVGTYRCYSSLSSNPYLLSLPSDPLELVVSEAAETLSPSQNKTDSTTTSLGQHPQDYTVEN

LILRA1 = molecular target: T14, LILRA1 (human, UniProt O75019); experiment: ELISA
T14 construct: not the cell-surface form of MOLECULES; also called LILRA1 protein of the ELISA and Octet specificity tests

LILRA3 = molecular target: T15, LILRA3 (human, UniProt Q8N6C8); experiment: ELISA
T15 construct: not the cell-surface form of MOLECULES; also called LILRA3 protein of the ELISA and Octet specificity tests
T15 sequence (Q8N6C8 24-439 limits assumed): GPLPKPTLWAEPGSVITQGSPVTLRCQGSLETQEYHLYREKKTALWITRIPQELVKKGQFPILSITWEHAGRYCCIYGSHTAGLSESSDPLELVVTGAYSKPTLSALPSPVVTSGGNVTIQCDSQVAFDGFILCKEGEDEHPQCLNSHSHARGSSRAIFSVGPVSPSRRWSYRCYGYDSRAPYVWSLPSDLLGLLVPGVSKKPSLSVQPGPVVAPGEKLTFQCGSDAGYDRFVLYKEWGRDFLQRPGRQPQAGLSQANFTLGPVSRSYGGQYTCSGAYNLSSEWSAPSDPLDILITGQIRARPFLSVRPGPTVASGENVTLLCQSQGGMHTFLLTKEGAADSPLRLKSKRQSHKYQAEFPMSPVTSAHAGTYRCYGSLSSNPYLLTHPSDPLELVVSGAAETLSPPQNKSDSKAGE

LILRA1 on reporter cells [3] = molecular target: T16, LILRA1 on reporter cells (UniProt O75019 17-489, limits assumed); experiment: flow cytometry on LILR reporter cells, anti-rabbit IgG PE
T16 construct: whole, on cells
T16 sequence (O75019 17-489 limits assumed): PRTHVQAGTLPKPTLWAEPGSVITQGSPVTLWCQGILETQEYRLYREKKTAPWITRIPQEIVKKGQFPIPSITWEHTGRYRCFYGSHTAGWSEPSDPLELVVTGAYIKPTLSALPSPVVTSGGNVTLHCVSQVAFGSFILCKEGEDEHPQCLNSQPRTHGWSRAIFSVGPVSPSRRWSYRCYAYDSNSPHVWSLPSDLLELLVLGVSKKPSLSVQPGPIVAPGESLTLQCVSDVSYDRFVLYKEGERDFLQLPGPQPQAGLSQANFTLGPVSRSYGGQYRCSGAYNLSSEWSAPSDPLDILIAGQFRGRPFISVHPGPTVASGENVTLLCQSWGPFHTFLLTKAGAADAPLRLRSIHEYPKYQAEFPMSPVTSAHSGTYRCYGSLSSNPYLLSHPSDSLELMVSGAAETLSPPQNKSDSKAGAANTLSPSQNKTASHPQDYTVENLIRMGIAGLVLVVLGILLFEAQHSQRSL

LILRA2 on reporter cells [4] = molecular target: T17, LILRA2 on reporter cells (UniProt Q8N149 24-483); experiment: as above
T17 construct: whole, on cells
T17 sequence (Q8N149 24-483): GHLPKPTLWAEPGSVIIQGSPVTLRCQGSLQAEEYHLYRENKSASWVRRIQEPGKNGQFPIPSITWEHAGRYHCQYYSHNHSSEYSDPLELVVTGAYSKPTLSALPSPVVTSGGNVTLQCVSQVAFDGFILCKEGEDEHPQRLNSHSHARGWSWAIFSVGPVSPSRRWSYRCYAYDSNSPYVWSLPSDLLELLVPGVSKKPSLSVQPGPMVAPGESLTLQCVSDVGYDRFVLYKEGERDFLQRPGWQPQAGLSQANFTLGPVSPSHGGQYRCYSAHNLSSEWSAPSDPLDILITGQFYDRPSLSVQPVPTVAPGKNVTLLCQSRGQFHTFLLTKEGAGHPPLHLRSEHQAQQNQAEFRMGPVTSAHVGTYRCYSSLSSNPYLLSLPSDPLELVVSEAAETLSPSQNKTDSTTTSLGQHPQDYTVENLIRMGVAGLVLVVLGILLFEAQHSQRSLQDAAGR

LILRA6 on reporter cells = molecular target: T18, LILRA6 on reporter cells (UniProt Q6PI73 24-481); experiment: flow cytometry on 2B4 cells expressing the LILR, PE
T18 construct: whole, on cells
T18 sequence (Q6PI73 24-481): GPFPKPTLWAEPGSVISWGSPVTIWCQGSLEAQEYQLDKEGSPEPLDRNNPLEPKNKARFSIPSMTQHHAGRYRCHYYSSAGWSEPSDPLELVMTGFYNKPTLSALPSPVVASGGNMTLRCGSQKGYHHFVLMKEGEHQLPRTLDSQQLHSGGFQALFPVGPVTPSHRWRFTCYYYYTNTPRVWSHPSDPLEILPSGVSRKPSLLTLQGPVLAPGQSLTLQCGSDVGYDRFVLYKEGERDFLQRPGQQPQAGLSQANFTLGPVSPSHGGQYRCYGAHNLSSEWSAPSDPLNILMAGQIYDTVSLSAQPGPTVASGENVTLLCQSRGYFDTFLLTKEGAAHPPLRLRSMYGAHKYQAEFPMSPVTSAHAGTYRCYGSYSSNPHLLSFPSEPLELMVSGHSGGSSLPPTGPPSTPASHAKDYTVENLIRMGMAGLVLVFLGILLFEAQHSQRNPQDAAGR

LILRB5 on reporter cells = molecular target: T19, LILRB5 on reporter cells (UniProt O75023 24-590, limits assumed); experiment: as above
T19 construct: whole, on cells

LILRB3 on reporter cells = molecular target: T20, LILRB3 on reporter cells (UniProt O75022 24-631, limits assumed); experiment: as above
T20 construct: whole, on cells

[5] = molecular target: T21, LILRB1 expressed on cell surface (human, UniProt Q8NHL6 24-650); experiment: as above
T21 construct: One entry is used for LILRB1 on reporter cells and on NK cells; also called LILRB1 NFAT-GFP reporter cell; LILRB1 reporter cells
T21 sequence (Q8NHL6 24-650 limits assumed): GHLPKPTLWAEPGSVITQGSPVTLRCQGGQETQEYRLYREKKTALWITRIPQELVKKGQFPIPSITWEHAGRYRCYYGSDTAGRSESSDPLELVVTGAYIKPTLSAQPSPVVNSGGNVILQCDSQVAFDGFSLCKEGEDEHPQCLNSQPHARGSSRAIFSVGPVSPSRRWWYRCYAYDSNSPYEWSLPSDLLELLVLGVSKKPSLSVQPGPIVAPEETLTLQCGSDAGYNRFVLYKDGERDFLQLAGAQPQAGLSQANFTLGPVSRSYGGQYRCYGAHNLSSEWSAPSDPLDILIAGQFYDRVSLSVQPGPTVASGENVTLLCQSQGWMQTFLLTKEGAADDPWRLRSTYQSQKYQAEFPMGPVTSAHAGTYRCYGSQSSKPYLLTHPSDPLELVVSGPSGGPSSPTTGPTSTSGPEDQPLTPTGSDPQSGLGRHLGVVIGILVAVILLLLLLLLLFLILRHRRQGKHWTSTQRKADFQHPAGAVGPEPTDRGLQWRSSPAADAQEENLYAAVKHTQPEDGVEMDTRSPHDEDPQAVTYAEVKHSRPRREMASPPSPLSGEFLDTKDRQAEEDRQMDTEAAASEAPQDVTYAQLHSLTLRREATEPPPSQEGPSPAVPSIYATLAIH

LILRB2 on reporter cells [6] = molecular target: T22, LILRB2 on reporter cells (UniProt Q8N423 22-597); experiment: as above
T22 construct: whole, on cells; The construct is not described
T22 sequence (Q8N423 22-597): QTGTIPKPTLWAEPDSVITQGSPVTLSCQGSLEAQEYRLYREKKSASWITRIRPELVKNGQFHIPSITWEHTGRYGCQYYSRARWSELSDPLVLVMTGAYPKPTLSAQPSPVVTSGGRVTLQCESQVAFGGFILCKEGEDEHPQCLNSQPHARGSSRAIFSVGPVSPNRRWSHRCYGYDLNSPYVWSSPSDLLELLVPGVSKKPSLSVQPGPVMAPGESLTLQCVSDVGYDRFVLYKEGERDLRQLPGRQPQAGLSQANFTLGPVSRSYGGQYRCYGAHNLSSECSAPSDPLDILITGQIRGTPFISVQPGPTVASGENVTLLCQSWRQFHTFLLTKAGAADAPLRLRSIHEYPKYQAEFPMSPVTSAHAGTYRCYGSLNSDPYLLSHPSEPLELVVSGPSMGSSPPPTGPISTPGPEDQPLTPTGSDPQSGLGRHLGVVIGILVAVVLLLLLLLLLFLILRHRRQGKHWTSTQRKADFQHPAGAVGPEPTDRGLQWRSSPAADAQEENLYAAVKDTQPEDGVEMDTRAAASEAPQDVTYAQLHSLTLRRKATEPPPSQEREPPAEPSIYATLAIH

LILRA1 on reporter cells [7] = molecular target: T16, LILRA1 on reporter cells; experiment: as above
LILRA4 on reporter cells = molecular target: T23, LILRA4 on reporter cells (UniProt P59901 24-499); experiment: as above
T23 construct: whole, on cells

LILRB4 on reporter cells = molecular target: T24, LILRB4 on reporter cells (UniProt Q8NHJ6 22-448); experiment: as above
T24 construct: whole, on cells

LILRA2 on reporter cells [8] = molecular target: T17, LILRA2 on reporter cells; experiment: as above
LILRA5 on reporter cells = molecular target: T25, LILRA5 on reporter cells (UniProt A6NI73 42-299); experiment: as above
T25 construct: whole, on cells

LILRB2 on reporter cells [9] = molecular target: T22, LILRB2 on reporter cells; experiment: flow cytometry on LILR reporter cells, 0.5 µg/mL rabbit B1-176, anti-rabbit IgG PE

T1 sequence (Q8NHL6 24-461 limits assumed): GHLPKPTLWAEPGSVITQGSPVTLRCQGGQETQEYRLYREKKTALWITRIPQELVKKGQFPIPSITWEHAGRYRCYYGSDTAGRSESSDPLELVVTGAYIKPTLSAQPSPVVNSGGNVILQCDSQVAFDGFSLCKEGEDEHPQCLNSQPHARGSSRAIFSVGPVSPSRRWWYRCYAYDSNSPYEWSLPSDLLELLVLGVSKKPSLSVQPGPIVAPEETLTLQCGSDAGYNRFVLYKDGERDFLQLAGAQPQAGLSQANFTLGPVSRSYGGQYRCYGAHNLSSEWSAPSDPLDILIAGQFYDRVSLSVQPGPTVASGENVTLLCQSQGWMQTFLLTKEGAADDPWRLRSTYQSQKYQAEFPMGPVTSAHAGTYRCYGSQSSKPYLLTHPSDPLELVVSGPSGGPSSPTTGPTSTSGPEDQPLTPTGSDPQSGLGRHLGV

B1: B1-176 rabbit antibody (antibody, V domains shown)
VH: QSLEESEGGLVKPGGTLTLTCTASGFSFSSSYCMCWVRQAPGKGLELIACIYTDSSGATYYASWAKGRFTISKSSSTTITLQMTSLTAADTATYFCARGWDYEDPGYTDTTYFSLWGPGTLVTVSS
VL: ELDLTQTPSSVEAAVGGTVTIKCQASQTIYTNLAWYQQKPGQPPNLLIYAASTLASGVSSRFKGSGSGTEFTLTISDLECADAATYYCQSYYGSSTTGNGFGGGTEVEIK
notes: Full-length rabbit IgG, kappa; Variable genes were cloned into a rabbit IgG expression vector and expressed in Expi293F cells
With B1 the Kd [1] was about 10 pM, the binding result (D3-Fc) was “no binding (tested: not given)” and the binding result (D2-Fc) was “no binding (tested: not given)”. B1: no binding (tested: not given) (D4SR-Fc); no binding (tested: not given) (D1-Fc); no binding (tested: not given) (D23-Fc). B1: no binding (tested: not given) (SR-Fc); no binding (tested: not given) (D234SR-Fc); no binding (tested: not given) (D34SR-Fc). For the same binder, the Kd [2] was under 10 pM, the binding result (LILRA4) was “no binding (tested: 10^3.0 ng/mL (1000 ng/mL))” and the binding result (LILRB5) was “no binding (tested: 10^3.0 ng/mL (1000 ng/mL))”. B1: no binding (tested: 10^3.0 ng/mL (1000 ng/mL)) (LILRB4); no binding (tested: 10^3.0 ng/mL (1000 ng/mL)) (LILRA2); no binding (tested: 10^3.0 ng/mL (1000 ng/mL)) (LILRA1). B1: no binding (tested: 10^3.0 ng/mL (1000 ng/mL)) (LILRA3); no binding (tested: 0.5 µg/mL) (LILRA1 on reporter cells [3]); no binding (tested: 0.5 µg/mL) (LILRA2 on reporter cells [4]). The “percent of cells in the gate” value (LILRA6 on reporter cells) was 0.123%, the “percent of cells in the gate” value (LILRB5 on reporter cells) was 0.29% and the “percent of cells in the gate” value (LILRB3 on reporter cells) was 0.0698%. The “percent of cells in the gate” value [5] was 99.2%, the “percent of cells in the gate” value (LILRB2 on reporter cells [6]) was 0.676% and the “percent of cells in the gate” value (LILRA1 on reporter cells [7]) was 0.124%. The “percent of cells in the gate” value (LILRA4 on reporter cells) was 0.0736%, the “percent of cells in the gate” value (LILRB4 on reporter cells) was 0.181% and the “percent of cells in the gate” value (LILRA2 on reporter cells [8]) was 0.11%. For the same binder, the “percent of cells in the gate” value (LILRA5 on reporter cells) was 0.101% and the “percent of cells in the gate” value (LILRB2 on reporter cells [9]) was 0.68%.
